Test results published in patent US20230295308A1, “ANTAGONISTIC BIPARATOPIC ANTIBODIES THAT SPECIFICALLY BIND FIBROBLAST GROWTH FACTOR RECEPTOR 2 AND METHODS OF USING SAME” (The Broad Institute, Inc., priority 2020, published 2023).

Legend:
[1] = molecular target: FGFR2b alpha IIIb (Homo sapiens, UniProt P21802); experiment: Surface Plasmon Resonance (SPR) binding; settings: FGFR2b alpha IIIb antigen
Source text: FIGS. 17A-17C provide a schematic and tabular data related to assessments made to compare the avidity of biparatopic antibodies to that of their parental (bivalent monospecific) antibodies.
Surface Plasmon Resonance (SPR) as known in the art was used to determine the binding affinities of biparatopic antibodies. The SPR-based binding method involves immobilization of a ligand (antibody) on the surface of a sensor chip. The binding partner of interest or an analyte (FGFR2 ECD) flow through the flow channel. Different concentrations of an analyte flow over the ligand, and the interactions of ligand-analyte can be characterized. The SPR signal originates from changes in the refractive index of the […] at the surface of the sensor chip. The increase in mass associated with a binding event causes a proportional increase in the refractive index, which is observed as a change in response-resonance signal. In brief, for the experiments using the antibodies described herein, the SPR assay was carried out by immobilizing antibodies (used as […]) at a concentration ranging from 1-1000 nM and flow-through FGFR2b alpha IIIb antigen (used as […]). The antibody kinetic data for the interaction with FGFR2b alpha IIb antigen were fitted to the 2-state and 1-1 binding models using Biocore software. The mean and standard deviation KD values are derived from at least three independent runs.
Using SPR, the kinetics of 6 monospecific and 13 biparatopic antibodies for binding to a single antigen, FGFR2b alpha IIb, was measured so as to compare avidity of the biparatopic antibodies to their parental antibodies. Without wishing to be bound by theory, it was expected that the biparatopic antibodies would bind to the FGFR2 antigen more tightly than their parental antibodies and that the tighter binding biparatopic antibodies among the antibodies that were assessed would be more efficient in blocking FGFR2 dimerization (FIG. 17A), thereby leading to inhibition or blocking of constitutive FGFR2 signaling and/or oncogenic transformation. […]

[2] = molecular target: T1, FGFR2IIIb; experiment: row 'Kd (nM) (patent)', value quoted from the source patent; method: Radioimmunoassay-purified FGFR2IIIb
T1 construct: also called purified FGFR2IIIb
T1 chain: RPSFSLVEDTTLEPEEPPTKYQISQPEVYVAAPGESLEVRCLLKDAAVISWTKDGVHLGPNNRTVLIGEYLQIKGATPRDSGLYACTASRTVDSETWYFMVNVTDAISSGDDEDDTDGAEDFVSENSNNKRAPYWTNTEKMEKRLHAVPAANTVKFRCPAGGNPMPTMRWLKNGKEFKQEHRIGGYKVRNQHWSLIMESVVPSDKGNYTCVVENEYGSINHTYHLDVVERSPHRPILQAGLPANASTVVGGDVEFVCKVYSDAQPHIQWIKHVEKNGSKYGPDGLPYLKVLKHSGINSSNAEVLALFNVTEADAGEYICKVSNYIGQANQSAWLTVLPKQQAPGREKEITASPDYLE

[3] = tested on: cells transformed with patient-derived FGFR2 having ECD activating deletion mutations; experiment: patient-derived FGFR2 ECD mutation driven cell growth (FIG. 4F); type: cell-based; settings: fold change from nonspecific IgG control
Source text: FIGS. 4A-4F present schematic diagrams, blots, images, tables and graphs showing that the FGFR2 extracellular domain is important for FGFR2 fusion driven cell growth and transformation and that patient-derived FGFR2 extracellular domain mutations increased transformation capacity. As also shown, some parental antibodies were effective in inhibiting ECD mutation driven cell growth. FIG. 4A is a graph showing that FGFR2-BICC1, FGFR2-AHCYL1, and FGFR2-PHGDH fusions grow faster compared to controls and respond to FGF ligands. The FGFR2 extracellular domain (ECD) contributes to the growth of transformed NIH3T3 cells expressing FGFR2 fusions. […] In addition, the ability of the antibodies described herein to inhibit the growth of the cells that overexpressed the ECD mutant FGFR2 fusions was assessed. […]
Expression of FGFR2-BICC1, FGFR2-AHCYL1, and FGFR2-PHGDH in NIH3T3 cells induced increased proliferation. […] By way of example, antibodies C, D, and E were effective in blocking the growth of cells having a patient-derived FGFR2 ECD activating mutation, as determined by assessing fold-increase or decrease from a nonspecific Ab (IgG) control (FIG. 4F); therefore, combinations of the binding regions of these antibodies in biparatopic antibodies may likely result in a synergistic blocking effect.

[4] = molecular target: FGFR2 on SNU-16 gastric cancer cell line with FGFR2 amplification (UniProt P21802); experiment: FACS on SNU-16 cells, % cells with FITC+ against log antibody concentration; Kd printed in the legend box [cont.]

B1: 2B 1.3.12 (antibody, V domains shown)
VH: EVQLVESGGGLVQPGGSLRLSCAASGFPFTSTGISWVRQAPGKGLEWVGRTHLGDGSTNYADSVKGRFTISADTSKNTAYLQMNSLRAEDTAVYYCARTYGIYDTYDMYTEYVMDYWGQGTLVTVSS
VL: DIQMTQSPSSLSASVGDRVTITCRASQDVDTSLAWYKQKPGKAPKLLIYSASFLYSGVPSRFSGSGSGTDFTLTISSLQPEDFATYYCQQSTGHPQTFGQGTKVEIK
notes: the duobody scheme implies IgG1 with K409R or F405L; also called Antibody D; GE
Kd [1]: 0.99 nM
Kd [2]: 3 nM
blocking growth of cells having a patient-derived FGFR2 ECD activating mutation [3]: effective
Kd [4]: 1.78 nM
